Results published in patent US20140142040A1.
Read-outs that look alike come from different tables or passages of the source.

Experiments:
[1] = target: T1, human activated protein C (human), P04070
T1 chain 1: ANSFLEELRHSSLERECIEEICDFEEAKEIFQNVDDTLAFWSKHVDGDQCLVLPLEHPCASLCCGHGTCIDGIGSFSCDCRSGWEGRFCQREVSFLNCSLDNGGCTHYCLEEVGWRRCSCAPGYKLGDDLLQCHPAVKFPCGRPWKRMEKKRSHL
T1 chain 2: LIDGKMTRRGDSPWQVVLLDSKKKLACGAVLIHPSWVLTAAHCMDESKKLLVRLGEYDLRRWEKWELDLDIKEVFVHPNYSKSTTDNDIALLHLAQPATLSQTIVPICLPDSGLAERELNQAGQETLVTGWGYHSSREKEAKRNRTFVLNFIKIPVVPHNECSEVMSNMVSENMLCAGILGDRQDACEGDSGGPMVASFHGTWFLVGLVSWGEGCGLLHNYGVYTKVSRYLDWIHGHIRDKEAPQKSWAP

[2] = target: T1, human activated protein C (human), …
[3] = target: T1, human activated protein C (human), …
[4] = target: human factor XIa (human), P03951
[5] = target: T2, human plasmin (human), P00747
T2 chain: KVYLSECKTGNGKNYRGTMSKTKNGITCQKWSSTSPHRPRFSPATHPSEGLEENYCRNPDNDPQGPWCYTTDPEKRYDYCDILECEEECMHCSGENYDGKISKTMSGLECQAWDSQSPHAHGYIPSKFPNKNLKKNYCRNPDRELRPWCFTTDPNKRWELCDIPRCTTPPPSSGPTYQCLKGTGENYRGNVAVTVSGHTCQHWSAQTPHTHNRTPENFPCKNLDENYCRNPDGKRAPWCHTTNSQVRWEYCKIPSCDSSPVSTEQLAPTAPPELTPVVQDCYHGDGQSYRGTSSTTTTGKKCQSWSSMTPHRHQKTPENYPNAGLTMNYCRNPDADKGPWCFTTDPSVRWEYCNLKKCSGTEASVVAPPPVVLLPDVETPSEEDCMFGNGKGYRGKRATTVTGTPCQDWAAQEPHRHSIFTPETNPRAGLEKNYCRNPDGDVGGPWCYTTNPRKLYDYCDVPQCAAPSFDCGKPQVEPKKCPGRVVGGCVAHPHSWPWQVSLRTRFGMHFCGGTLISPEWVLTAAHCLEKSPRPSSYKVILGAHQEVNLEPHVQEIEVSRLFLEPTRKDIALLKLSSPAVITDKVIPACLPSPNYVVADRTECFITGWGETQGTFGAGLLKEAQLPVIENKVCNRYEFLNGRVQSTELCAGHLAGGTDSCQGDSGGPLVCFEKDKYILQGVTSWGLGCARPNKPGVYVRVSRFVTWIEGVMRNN

[6] = target: T1, human activated protein C (human), …; test: cell-based or functional assay

B1: DrKIn-I (Daboia russelii Kunitz Inhibitor-I), A8Y7N4 25-90 (protein)
chain: QDRPKFCNLAPESGRCRGHLRRIYYNPDSNKCEVFFYGGCGGNDNNFETRKKCRQTCGAPRKGRPT
modifications: not checked
Q: B1 was tested. Which kon [1] did it give?
A: 1.7e+07 M⁻¹ s⁻¹

Q: What about the Kd [2] of the same binder?
A: 2.6 nM

Q: What about the koff [2] of the same binder?
A: 0.034 s⁻¹

Q: What about the kon [2] of the same binder?
A: 1.3e+07 M⁻¹ s⁻¹

Q: And the Ki [3]?
A: 0.053 nM

Q: What about the Ki [4] of the same binder?
A: 1.33 nM

Q: What about the fold of Ki against the Ki for APC inhibition [4] of the same binder?
A: > 25 fold

Q: What about the Ki [5] of the same binder?
A: 1.56 nM

Q: What about the fold of Ki against the Ki for APC inhibition [5] of the same binder?
A: > 25 fold

Q: What about the fold reduction of the IC50 by heparin [6] of the same binder?
A: 25 fold
